# Test: soluble on expression in E. coli; label from the status in PepcDB or PDB records
row,Sequence,soluble on expression in E. coli
1,MSLEDTGIFGYSRAGSINGIEYPYVINVKTDFVENDGKLNFMGEEIDRMLIYPSQIKQEIVETESFVIIPNGAELIRRPKNLVSIIMNVHEKYGFSKLIYLSGLPDPYSIPALVYLGVSFFDDAYFRIEGINGLQFTQYGIRRTNEDQTENNMNFVRSMLNVIKDSIMNGTLRDIVEKNLVSSKAAEMIRIADYSYYEEYEKIFPSRTPYIKANTIEDLYRPDIVRYREYVANLYEKPDLDVAVILPCSAKKPYSKSKSHQKVINSLSDLRKYIHEIIVTSPLGVVPRDLEETYPAMFYDIPVIGLWYEDEKVMMKRMLRSYMSRNKYRKVIAFVPDDLEFITDSIPYDTEFIEFKSSNLSKLRQTVEKEKFASKSIDQKKAKYESVLKYQFGSWILPLINGYSLRRNYNQDMIVKDGKILFVYNERLGKFTINKASAEMFVKNGRFLVEIDDFKPTSNVYAMGVRDATDDIRQEDEVVLVHSGEIRGVGIAKMNARAMMELKKGIAVKVREGHHHHHH,soluble
2,MFLAQPRGFCAGVVRAIEIVERALEKYGPPVYVRHEIVHNKYVVESLKAKGAIFVEELSEVPPKAVTVFSAHGVARSIEEEAAARDLPVLNATCPLVTKVHNQGKRYTSKGRTLILIGHAGHPEVEGTMGQVPGPVLLVQNLDDVAALTLPPETPVAYITQTTLSVDDTKDIIVALSKKFHDIEGPDTRDICYATQNRQSAVRQMSKLVDLILVVGANNSSNSNRLREIGTEAGIPSYLIADGSELDPAWLDGKKAVGITAGASAPEVLVDDVIEALRRIVPVTVSVLPGREENIEFVLPAELATALEHHHHHH,not soluble
3,MVGYAEPVLIERQSVVAAPAEQVWQRVVTPEGINDELRPWMTMSVPRGAKGMTVDTVPIGAPIGRAWLRLFGVLPFDYDRLSIAELEPGRRFREDSTMLSMRQWQHERTVTPEGDTKTIVRDRITFQTRAGLRFAAPLIAAGLRALFGHRHRRLQRHFAQGLEHHHHHH,soluble
4,METKQKERIRRLMELLKKTDRIHLKDAARMLEVSVMTIRRDLSQDDDPLPLTLLGGYIVMVNKPASSTNMPLPAKKTHHRDDLPVAILAAGLVRENDLVFFDNGPEMPLVISMIPDDITFTGICYSHRVFIALNEKPNATAILCGGTYRAKSDAFYDANNPSALDSLNPRKVFISASGVHEHFGVSWFNPDDLAAKRKAMERGLRKILLARHALFDEVAPASIGPLSAFDVLISDRPLPTDYAVHCRNGSVKVITPDSESE,not soluble
5,MSLKPAPRWPLHPAPREGEALSSWLNRVALCYHMEVSELLEHDLGHAQVDDLDTAPPLALLAMLSQRSGIEPDRLRCMSFAGWVPWLLDSLDDQIPDALETYAFQLSVLLPKLRRRTRSITSWRAWLPSQPIHRACPLCLNDPANQAVLLAWKLPLMLSCPLHGCWLESYWGVPGCQRRSNTDPWRRGEGHHHHHH,not soluble
6,MDDITDGLRYRISNVIHVSPELTYDGRIMSAGKLLKLMDDLGGIICLRYLDHNSSNLYDNSFNAVVTVAVKGLAFYSPIRLNDIILIRAGLVYVGNTSADILINVVREDLNGAKEHVATAYFTYVRVDKDGKPIKIP,soluble
7,MAGDPMRRTLYRLMIELTNGRFTSYILRKFAQSRLSSIIIPSYAKVFQINQDEMEKGLKEYRTLHELFTRKLKEGKRSIDTDASSIVSPVDGVFADHGPIEDTKTFDIKGKRYSIVDMLGNEERATRYAGGTYMVIYLSPSHYHRIHSPLSGSVTERFVLGRKSYPVNAAGMEYGKEPLSKNYRSVTEVSSDGEHMALVKVGAMFVNSIELLHERDTVQKGEEMAYFTFGSTVVLLFEKDMIEVVQELKSGQELRLGEKIATRLAHKLEHHHHHH,not soluble
8,MMTDEERIELQQNNPLHGLKLETLLQELVDFYGWEILDTAMRLNCFNTNPSVASSVKYLKKTEWAREKLENFYLYRFKRMPRASNLEYDKPPRARTFPHGLEPKEPMELTVDSILKSQAKAASAHKARTSNRGGNYRRLEHHHHHH,soluble
9,MSESSEWLIYRGAGEPHDGVDRLPDPPPWRDFTSRDAAGSGDGSEDRRLGAHRHLAELHRPGAEELEMINAALYLRRPLLVTGSPGAGKSTLAHSVAYELGLGNVLRWSIVSRSELQDGLYHYDAIARLQDVQIAAQADNGPGSGTPGAVDGIGGYIRLGPLGTALLPSDKPRVLLIDELDKSDIDLPNDLLNVLEEGEFAIPELERVADRLPDRTAEVLTADGVKVPVRDGRVRCRAFPFVVLTSNGERDFPAPLMRRCIHLELGRPDHNRLATFVRAHLGDEAARAGDDLVTRFLERSRSELLATDQLLNAIYLTDAAATPSRDRLADLLIQRLDRPRLEHHHHHH,soluble

# From the DeepSol protein solubility set
